The chains are these.
B1: CD3.201 (bispecific antibody, V domains shown)
VH: EVQLLESGGGIVQPGGSLRLSCAASGFTFNTYAMNWVRQAPGKGLEWVGRIRSKRNNYATYYADSVKGRFTISRDDSKNTVYLQMNSLKTEDTAVYYCVRHENFGNSYVSWFAHWGQGTLVTVSS
VL: ELVVTQEPSLTVSPGGTVTLTCRSSNGAVTSSNYANWVQQKPGQAPRGLIGGTNKRAPGTPARFSGSLLGGKAALTLSGVQPEDEAVYYCALWYPNLWVFGGGTKLTVL
notes: paTCE with PSMA.262; also called AC3632
B2: CD3.202 (bispecific antibody, V domains shown)
VH: EVQLVESGGGIVQPGGSLRLSCAASGFTFNTYAMNWVRQAPGKGLEWVGRIRSKRNNYATYYADSVKGRFTISRDDSKNTVYLQMNSLKTEDTAVYYCVRHENFGNSYVSWFAHWGQGTLVTVSS
VL: ELVVTQEPSLTVSPGGTVTLTCRSSNGAVTSSNYANWVQQKPGQAPRGLIGGTNKRAPGTPARFSGSLLGGKAALTLSGVQPEDEAVYYCALWYPNLWVFGGGTKLTVL
notes: paTCE with PSMA.262; also called AC3633
B3: CD3.207 (bispecific antibody, V domains shown)
VH: EVQLLESGGGIVQPGGSLRLSCAASGFTFNTYAMNWVRQAPGKGLEWVGRIRSKYNNYATTYADSVKGRFTISRDDSKNTVYLQMNSLKTEDTAVYYCVRHENFGNSYVSWFAHWGQGTLVTVSS
VL: ELVVTQEPSLTVSPGGTVTLTCRSSNGAVTSSNYANWVQQKPGQAPRGLIGGTNKRAPGTPARFSGSLLGGKAALTLSGVQPEDEAVYYCALWYPNLWVFGGGTKLTVL
notes: paTCE with PSMA.262; also called AC3638
B4: CD3.204 (bispecific antibody, V domains shown)
VH: EVQLVESGGGIVQPGGSLRLSCAASGFTFNTYAMNWVRQAPGKGLEWVGRIRSKTNNYATYYADSVKGRFTISRDDSKNTVYLQMNSLKTEDTAVYYCVRHENFGNSYVSWFAHWGQGTLVTVSS
VL: ELVVTQEPSLTVSPGGTVTLTCRSSNGAVTSSNYANWVQQKPGQAPRGLIGGTNKRAPGTPARFSGSLLGGKAALTLSGVQPEDEAVYYCALWYPNLWVFGGGTKLTVL
notes: paTCE with PSMA.262; also called AC3635
B5: CD3.213 (bispecific antibody, V domains shown)
VH: EVQLVESGGGIVQPGGSLRLSCAASGFTFNTYAMNWVRQAPGKGLEWVGRIRSKYNDYATYYADSVKGRFTISRDDSKNTVYLQMNELKTEDTAVYYCVRHENFGNSYVSWFAHWGQGTLVTVSS
VL: ELVVTQEPSLTVSPGGTVTLTCRSSNGAVTSSNYANWVQQKPGQAPRGLIGGTNKRAPGTPARFSGSLLGGKAALTLSGVQPEDEAVYYCALWYPNLWVFGGGTKLTVL
notes: paTCE with PSMA.262; also called AC3644
B6: CD3.214 (bispecific antibody, V domains shown)
VH: EVQLVESGGGIVQPGGSLRLSCAASGFTFSTYAMNWVRQAPGKGLEWVGRIRSKYNDYATYYADSVKGRFTISRDDSKNTVYLQMNELKTEDTAVYYCVRHENFGNSYVSWFAHWGQGTLVTVSS
VL: ELVVTQEPSLTVSPGGTVTLTCRSSNGAVTSSNYANWVQQKPGQAPRGLIGGTNKRAPGTPARFSGSLLGGKAALTLSGVQPEDEAVYYCALWYPNLWVFGGGTKLTVL
notes: paTCE with PSMA.262; also called AC3645
B7: CD3.209 (bispecific antibody, V domains shown)
VH: EVQLVESGGGIVQPGGSLRLSCAASGFTFNTYAMNWVRQAPGKGLEWVGRIRSKRNNYATYYADSVKGRFTISRDDSKNTVYLQMNELKTEDTAVYYCVRHENFGNSYVSWFAHWGQGTLVTVSS
VL: ELVVTQEPSLTVSPGGTVTLTCRSSNGAVTSSNYANWVQQKPGQAPRGLIGGTNKRAPGTPARFSGSLLGGKAALTLSGVQPEDEAVYYCALWYPNLWVFGGGTKLTVL
notes: paTCE with PSMA.262; also called AC3640
B8: CD3.215 (bispecific antibody, V domains shown)
VH: EVQLVESGGGIVQPGGSLRLSCAASGFTFSTYAMNWVRQAPGKGLEWVGRIRSKRNNYATYYADSVKGRFTISRDDSKNTVYLQMNSLKTEDTAVYYCVRHENFGNSYVSWFAHWGQGTLVTVSS
VL: ELVVTQEPSLTVSPGGTVTLTCRSSNGAVTSSNYANWVQQKPGQAPRGLIGGTNKRAPGTPARFSGSLLGGKAALTLSGVQPEDEAVYYCALWYPNLWVFGGGTKLTVL
notes: paTCE with PSMA.262; also called AC3646
B9: CD3.206 (bispecific antibody, V domains shown)
VH: EVQLVESGGGIVQPGGSLRLSCAASGFTFNTYAMNWVRQAPGKGLEWVGRIRSKYNDYATYYADSVKGRFTISRDDSKNTVYLQMNSLKTEDTAVYYCVRHENFGNSYVSWFAHWGQGTLVTVSS
VL: ELVVTQEPSLTVSPGGTVTLTCRSSNGAVTSSNYANWVQQKPGQAPRGLIGGTNKRAPGTPARFSGSLLGGKAALTLSGVQPEDEAVYYCALWYPNLWVFGGGTKLTVL
notes: paTCE with PSMA.262; also called AC3637
B10: CD3.212 (bispecific antibody, V domains shown)
VH: EVQLVESGGGIVQPGGSLRLSCAASGFTFSTYAMNWVRQAPGKGLEWVGRIRSKTNNYATYYADSVKGRFTISRDDSKNTVYLQMNELKTEDTAVYYCVRHENFGNSYVSWFAHWGQGTLVTVSS
VL: ELVVTQEPSLTVSPGGTVTLTCRSSNGAVTSSNYANWVQQKPGQAPRGLIGGTNKRAPGTPARFSGSLLGGKAALTLSGVQPEDEAVYYCALWYPNLWVFGGGTKLTVL
notes: paTCE with PSMA.262; also called AC3643
B11: CD3.208 (bispecific antibody, V domains shown)
VH: EVQLVESGGGIVQPGGSLRLSCAASGFTFNTYAMNWVRQAPGKGLEWVGRIRSKYNNYATTYADSVKGRFTISRDDSKNTVYLQMNSLKTEDTAVYYCVRHENFGNSYVSWFAHWGQGTLVTVSS
VL: ELVVTQEPSLTVSPGGTVTLTCRSSNGAVTSSNYANWVQQKPGQAPRGLIGGTNKRAPGTPARFSGSLLGGKAALTLSGVQPEDEAVYYCALWYPNLWVFGGGTKLTVL
notes: paTCE with PSMA.262; also called AC3639
B12: CD3.205 (bispecific antibody, V domains shown)
VH: EVQLLESGGGIVQPGGSLRLSCAASGFTFNTYAMNWVRQAPGKGLEWVGRIRSKYNDYATYYADSVKGRFTISRDDSKNTVYLQMNSLKTEDTAVYYCVRHENFGNSYVSWFAHWGQGTLVTVSS
VL: ELVVTQEPSLTVSPGGTVTLTCRSSNGAVTSSNYANWVQQKPGQAPRGLIGGTNKRAPGTPARFSGSLLGGKAALTLSGVQPEDEAVYYCALWYPNLWVFGGGTKLTVL
notes: paTCE with PSMA.262; also called AC3636
B13: CD3.210 (bispecific antibody, V domains shown)
VH: EVQLVESGGGIVQPGGSLRLSCAASGFTFSTYAMNWVRQAPGKGLEWVGRIRSKRNNYATYYADSVKGRFTISRDDSKNTVYLQMNELKTEDTAVYYCVRHENFGNSYVSWFAHWGQGTLVTVSS
VL: ELVVTQEPSLTVSPGGTVTLTCRSSNGAVTSSNYANWVQQKPGQAPRGLIGGTNKRAPGTPARFSGSLLGGKAALTLSGVQPEDEAVYYCALWYPNLWVFGGGTKLTVL
notes: paTCE with PSMA.262; also called AC3641
B14: CD3.211 (bispecific antibody, V domains shown)
VH: EVQLVESGGGIVQPGGSLRLSCAASGFTFNTYAMNWVRQAPGKGLEWVGRIRSKTNNYATYYADSVKGRFTISRDDSKNTVYLQMNELKTEDTAVYYCVRHENFGNSYVSWFAHWGQGTLVTVSS
VL: ELVVTQEPSLTVSPGGTVTLTCRSSNGAVTSSNYANWVQQKPGQAPRGLIGGTNKRAPGTPARFSGSLLGGKAALTLSGVQPEDEAVYYCALWYPNLWVFGGGTKLTVL
notes: paTCE with PSMA.262; also called AC3642
B15: CD3.216 (bispecific antibody, V domains shown)
VH: EVQLVESGGGIVQPGGSLRLSCAASGFTFSTYAMNWVRQAPGKGLEWVGRIRSKTNNYATYYADSVKGRFTISRDDSKNTVYLQMNSLKTEDTAVYYCVRHENFGNSYVSWFAHWGQGTLVTVSS
VL: ELVVTQEPSLTVSPGGTVTLTCRSSNGAVTSSNYANWVQQKPGQAPRGLIGGTNKRAPGTPARFSGSLLGGKAALTLSGVQPEDEAVYYCALWYPNLWVFGGGTKLTVL
notes: paTCE with PSMA.262; also called AC3647

T1 sequence (P07766 23-126 limits assumed): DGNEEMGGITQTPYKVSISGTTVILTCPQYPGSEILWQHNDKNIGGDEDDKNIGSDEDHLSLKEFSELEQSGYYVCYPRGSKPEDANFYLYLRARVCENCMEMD

This assay addresses T1, human CD3 epsilon (human, UniProt P07766 23-126, limits assumed).
T1 construct: also called huCD3e
The assay is described as follows: Octet, crude lysate. The protocol: Pool 2 consisted of paTCE molecules each containing PSMA.262 and one of 64 CD3.23 mutation combination variants. Stability and affinity of the individually expressed molecules in the form of crude lysate was evaluated by Octet. […] The binding of these anti-CD3 molecules (CD3.227, CD3.228, CD3.229 and CD3.230) to human and cynomolgus CD3 was measured by Octet and the Tm was measured by Differential Scanning Fluorimetry. All variants were paired with PSMA.262 except for CD3.23 which was paired with PSMA.5.
Background: Biolayer interferometry detects binding as a change in optical thickness at a sensor tip.
What is called Kd is the concentration at which binding is half-saturated. Take B1: the Kd was found to be 8.6 nM.

Consider B2, for which the Kd is 8.4 nM.

In the case of B3, the Kd came out at 15.6 nM.

With B4, the Kd stood at 7.2 nM.

Regarding B5, the Kd stood at 6.6 nM.

Turning to B6, the Kd was 6.6 nM.

As for B7, the Kd is 5.6 nM.

For the molecule B8, the Kd is 9.7 nM.

B9: the Kd stood at 10.3 nM.

B10: the Kd stood at 35.6 nM.

With B11, the Kd came to 16.8 nM.

Consider B12, for which the dissociation constant (Kd) was found to be 7.2 nM.

With B13, the Kd was 5.7 nM.

As for B14, the Kd came out at 9.5 nM.

For B15, the Kd worked out at 11.2 nM.

The values above are taken from patent publication US20260055205A1 (published 2026).
